US20030073084A1

Biological target: wild type p53 (human cells) (human) (UniProt P04637)
Experiment: cell-based or functional assay

WAF1 mRNA level in HT1080 cells (Northern blot): 4 to 6 times
Substance: p28^ING1 (alternative splice variant of human ING1)
